Results: patent US20180368743, “GRAPHENE-BASED NANOSENSOR FOR IDENTIFYING TARGET ANALYTES” (THE TRUSTEES OF COLUMBIA UNIVERSITY IN THE CITY OF NEW NEW …, published 2018)

Experiments:
Details in all cases: G4
Glucagon = Glucagon (Homo sapiens, UniProt P01275 P01275:53-81); assay: graphene FET current change <1.3% at up to 1 uM vs 8.5% for insulin
Protocol: (§1) To examine the specificity of the nanosensor to insulin over other related analogues that might interfere with the detection of insulin, glucagon and somatostatin, which were secreted by the pancreatic islet alpha and delta cells, respectively, were evaluated as negative control analytes. This is because glucagon [molecular weight (MW): 3.5 kD, PI: 6.2], promoting […] by the liver and together with somatostatin (MW: 1.63 kD, PI: 5.6) regulating the secretion of insulin, share similar physical properties with insulin, which can affect the sensing performance. The functionalized graphene nanosensor was first exposed to somatostatin solutions prior to the introduction of insulin. The change in Ids, denoted as ΔIds, was recorded throughout the experiment and compared as the response of the aptameric nanosensor to the given solutions. To minimize errors caused by device-to-device nonuniformity, the time-resolved selective response as the ratio of ΔIds to ΔIds,max (the maximum value of ΔIds) was calculated:
Additionally, a similar real-time monitoring control experiment was conducted with glucagon (FIG. 107). […] Here, ΔIds,S(C)=Ids,S(C)−Ids,PBS, where Ids,S(C) is the Ids measured at the binding equilibrium for given solutions (insulin/glucagon/somatostatin) at representative tested concentrations.

Insulin = Insulin (Homo sapiens, UniProt P01308;P01308 P01308:25-54,P01308:90-110); assay: graphene FET, PBS pH 7.4, Hill-Langmuir fit of Dirac voltage shift
Insulin, sequence (P01308 25-54, chain 1 of 2): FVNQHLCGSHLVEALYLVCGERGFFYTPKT
Insulin, sequence (P01308 90-110, chain 2 of 2): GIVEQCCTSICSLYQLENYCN
Protocol: The nanosensor insulin measuring capabilities were subsequently tested in PBS buffer. Insulin solutions of increasing concentrations from 100 pM to […] were sequentially introduced to the PDMS chamber of the nanosensor. The binding of insulin to the IGA3 aptamer was allowed to reach equilibrium before the replenishment of sample solutions.
The binding of insulin and aptamer was allowed to reach equilibrium for 10 min before the replenishment of higher concentration insulin solution. Thus, the dipping time of graphene in solutions was increased with the ongoing experiment. The slight decrease in the minimum of Ids (Ids,min,) in the transfer characteristic curve, observed in FIG. 99A was considered as a result of the increase in the ionic strength caused by the evaporation of PBS buffer (150 mM NaCl) with increasing dipping time.
Further, the equilibrium dissociation constant (KD) for the IGA3 aptamer and insulin with different VDirac at corresponding insulin concentrations was evaluated using the aptamer-functionalized GFETs. […] The change in VDirac, denoted as ΔVDirac, is plotted as a function of insulin concentrations with error bars obtained from three different devices (FIG. 99B).

Somatostatin = target: T1, Somatostatin (Homo sapiens, UniProt P61278 P61278:103-116); assay: graphene FET current change <1.3% at up to 1 uM vs 8.5% for insulin; normalized response <0.192
T1 chain: AGCKNFFWKTFTSC
Protocol: as §1
where Ids,PBS is the Ids measured in fresh PBS buffer. […] On the contrary, the calculated ΔIds/ΔIds,max value increased and reached 1.0 at […] insulin with stepwise increments in the insulin concentration (FIG. 101A).
Additionally, a similar real-time monitoring control experiment was conducted with glucagon (FIG. 107). […]

Glucagon, sequence (P01275 53-81, one chain of several): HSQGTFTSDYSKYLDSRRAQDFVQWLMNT

B1: IGA3 insulin aptamer (ssDNA)
DNA: GGTGGTGGGGGGGGTTGGTAGGGTGTCTTC
modifications: 5'-NH2 (coupled to PASE on graphene)
In the case of B1, the binding result (Glucagon) is reported as “no binding”, the Kd (Insulin) is reported as 35 nM and the binding result (Somatostatin) is reported as “no binding”.
